According to patent US6458539, “Photoselection of nucleic acid ligands” (Somalogic, Inc.):

How the values were obtained:
[1] = target: PDGF (platelet derived growth factor) (UniProt P01127); assay: filter; conditions: 5-bromo-2'-deoxyuridine (BrdU) substituted for T
[2] = target: PDGF (platelet derived growth factor) (UniProt P01127); conditions: 5-bromo-2'-deoxyuridine (BrdU) substituted for T; photocrosslinking rate, 308 nm
[3] = target: T1, bFGF(155) (basic fibroblast growth factor, FGF2) (Homo sapiens, UniProt P09038 SEQ:1-155); assay: filter; 1xPBS, 2 mM MgCl2, 0.01% HSA, 1 mM DTT, 37 C; Table 7 gives a different KD of 1.3e-10 M; conditions: tags: expressed in E. coli; Bachem California lot SN 433; label: 5'-32P
Procedure: (§1) Nitrocellulose filter binding was used to assess ligand affinity for bFGF_{(155)}. This was accomplished by first preparing 2,000 cpm/30 μL of 5'-^32P-radiolabeled material (≈1–5 fmol) of each sequence by dilution with 1×crosslink binding buffer (XLBB) (1×PBS/2 mM MgCl_2/0.01% HSA/1.0 mM dithiothreitol (DTT)) to give 2×DNA. Each 2×oligonucleotide sample was mixed with 30 μL of each bFGF_{(155)} concentration to be evaluated in a 96 well tray. bFGF_{(155)} concentrations were prepared by serial dilution with 1×XLBB. After incubation at 37° C. for 15 minutes, a multi-pipeter was used to load 40 μL of each DNA/bFGF_{(155)} mixture onto a pre-washed Gibco nitrocellulose binding curve apparatus followed by washing with a dissociation wash buffer. Bound DNA was then measured by phosphorimage and a binding curve for the percent bound DNA vs. [bFGF] was calculated by Kaleidograph ver. 3.09 software (Synergy Software Co., Reading, Pa).

[4] = target: VEGF (vascular endothelial growth factor) (UniProt P15692-4 P15692-4:27-191); assay: filter; 1xPBS, 2 mM MgCl2, 37 C; conditions: tags: R&D Systems; chain copies: 2; label: 5'-32P
[5] = target: T1, bFGF(155) (basic fibroblast growth …); assay: filter; 1xPBS, 2 mM MgCl2, 0.01% HSA, 1 mM DTT, 37 C; Table 7 gives a different KD of 5.3e-9 M; Table 2 prints CACCC where SEQ 70 has CAGCC; conditions: tags: expressed in E. coli; Bachem California lot SN 433; label: 5'-32P
Procedure: as §1

PDGF (platelet derived growth factor), sequence (P01127 82-190): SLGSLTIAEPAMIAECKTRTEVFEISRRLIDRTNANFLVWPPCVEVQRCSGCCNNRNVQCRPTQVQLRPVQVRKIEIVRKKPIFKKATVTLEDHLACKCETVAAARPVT
T1 sequence (P09038 134-288): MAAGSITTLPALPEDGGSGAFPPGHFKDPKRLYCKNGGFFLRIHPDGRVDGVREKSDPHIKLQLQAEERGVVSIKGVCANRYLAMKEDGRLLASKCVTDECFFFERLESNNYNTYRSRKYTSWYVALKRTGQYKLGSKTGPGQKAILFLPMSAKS
VEGF (vascular endothelial growth factor), sequence (P15692 other isoform, or with tags, fused parts or gaps): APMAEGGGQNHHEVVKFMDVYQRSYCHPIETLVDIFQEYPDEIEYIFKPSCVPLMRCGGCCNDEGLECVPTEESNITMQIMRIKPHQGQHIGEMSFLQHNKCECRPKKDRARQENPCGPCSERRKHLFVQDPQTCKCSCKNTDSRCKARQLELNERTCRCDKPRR

GGGAGGACGATGCGGGCGAAGGCACACCGAGTTCATAGTATCCCACAGACGACGAGCGGGA [06.15]
Kd ([1]; 1500-fold weaker than bFGF (Table 6), Table 3 states relative KD >1000): 200 nM
activity [2]: 65000 M⁻¹ s⁻¹

GGGAGGACGATGCGGTGACGTAAGAGTGTAATCGATGCAGCCTGGCAGACGACGAGCGGGA [06.50]
Kd ([1]; 53-fold weaker than bFGF): 280 nM
activity [2]: 61000 M⁻¹ s⁻¹

B1: 06.15 (ssDNA)
DNA: GGGAGGACGATGCGGGCGAAGGCACACCGAGTTCATAGTATCCCACAGACGACGAGCGGGA
modifications: 5-bromo-2'-deoxyuridine (BrdU) substituted for T
Kd [3]: 0.016 nM
binding signal [4]: > 1000 fold KD relative to bFGF

B2: 06.50 (ssDNA)
DNA: GGGAGGACGATGCGGTGACGTAAGAGTGTAATCGATGCAGCCTGGCAGACGACGAGCGGGA
modifications: 5-bromo-2'-deoxyuridine (BrdU) substituted for T
Kd [5]: 0.56 nM
